Results from publication PMC8277531 (Cell, 2021).

Biological target: T1, chicken Scap-3xFLAG (pEZT-cScap-3xFLAG WT) expressed in HEK 293T cells (Gallus gallus)
T1 chain: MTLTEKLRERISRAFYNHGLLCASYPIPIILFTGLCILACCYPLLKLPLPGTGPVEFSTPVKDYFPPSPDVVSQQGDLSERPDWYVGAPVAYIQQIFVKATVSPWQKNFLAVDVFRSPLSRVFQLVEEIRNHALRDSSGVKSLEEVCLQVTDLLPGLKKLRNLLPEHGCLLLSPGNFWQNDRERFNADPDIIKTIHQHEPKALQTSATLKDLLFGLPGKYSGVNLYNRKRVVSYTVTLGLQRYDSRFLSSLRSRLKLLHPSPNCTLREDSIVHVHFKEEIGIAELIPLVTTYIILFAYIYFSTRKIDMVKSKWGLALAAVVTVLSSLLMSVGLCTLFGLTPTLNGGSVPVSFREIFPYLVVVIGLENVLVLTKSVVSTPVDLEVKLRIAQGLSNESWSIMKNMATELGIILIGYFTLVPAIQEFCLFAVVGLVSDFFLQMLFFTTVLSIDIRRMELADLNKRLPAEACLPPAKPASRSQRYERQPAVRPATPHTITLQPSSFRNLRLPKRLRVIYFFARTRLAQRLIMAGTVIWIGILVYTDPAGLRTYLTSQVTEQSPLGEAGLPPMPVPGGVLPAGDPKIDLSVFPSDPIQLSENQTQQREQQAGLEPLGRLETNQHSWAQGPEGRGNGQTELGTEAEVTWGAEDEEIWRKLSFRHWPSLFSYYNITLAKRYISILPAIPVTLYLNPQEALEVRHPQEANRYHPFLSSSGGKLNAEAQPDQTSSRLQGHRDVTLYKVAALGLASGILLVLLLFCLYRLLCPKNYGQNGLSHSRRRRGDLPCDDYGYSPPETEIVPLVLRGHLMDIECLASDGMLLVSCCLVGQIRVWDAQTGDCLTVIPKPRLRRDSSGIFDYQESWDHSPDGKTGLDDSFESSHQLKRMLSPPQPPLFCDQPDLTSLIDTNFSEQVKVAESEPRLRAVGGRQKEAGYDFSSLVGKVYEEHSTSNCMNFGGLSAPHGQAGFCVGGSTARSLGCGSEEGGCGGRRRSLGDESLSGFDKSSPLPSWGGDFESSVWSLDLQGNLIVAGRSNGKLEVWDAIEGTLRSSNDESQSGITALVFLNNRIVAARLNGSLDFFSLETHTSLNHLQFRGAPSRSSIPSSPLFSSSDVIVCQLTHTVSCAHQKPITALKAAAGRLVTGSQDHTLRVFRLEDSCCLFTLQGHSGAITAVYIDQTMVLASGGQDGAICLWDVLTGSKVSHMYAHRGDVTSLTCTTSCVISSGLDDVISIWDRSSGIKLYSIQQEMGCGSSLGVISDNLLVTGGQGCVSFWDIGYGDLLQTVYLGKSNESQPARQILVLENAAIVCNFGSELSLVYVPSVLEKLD
Experiment: pull-down

binding result: binds
B1: Fab fragment derived from mouse monoclonal IgG 4G10 (Fab, V domains shown)
VH: EVQLQQSGAELVRPGASVKLSCTASGFKIKDDYIHWVKQRPEQGLEWIGRIDPANGHTRYAPKFQDKATITADTSSNTAYLQLSSLTSEDTAVYYCTRYNDYDAFYFDYWGQGTTLTVSS
VL: DIQMTQTTSSLSASLGDRVTISCRASQDIRNYLNWYQQKPDGTVKLLIYYTSRLHSGVPSRFSGSGSGTDYSLTISNLEQEDIATYFCQQTNTLPWTFGGGTKVEIK
